± gives the uncertainty stated by the source.
Experiment: self-splicing fitness, log relative to wild type (ln ratio); higher = more splicing; Tetrahymena group I intron in knt gene, E. coli kanamycin selection, DiMSum; sequences stand for … in CUCUCU…GGAGGGAAAAGUUAUCAGGCAUGCACCUGGUAGCUAGUCUUUAAACCAAUAGAUUGCAUCGGUUUAAAAGGCAAGACCGUCAAAUUGCGGGAAAGGGGUCAACAGCCGUUCAGUACCAAGUCUCAGGGGAAACUUUGAGAUGGCCUUGCAAAGGGUAUGGUAAUAAGCUGACGGACAUGGUCCUAACCACGCAGCCAAGUCCUAAGUCAACAGAUCUUCUGUUGAUAUGGAUGCAGUUCACAGACUAAAUGUCGGUCGGGGAAGAUGUAUUCUUCUCAUAAGAUAUAGUCGGACCUCUCCUUAAUGGGAGCUAGCGGAUGAAGUGAUGCAACACUGGAGCCGCUGGGAACUAAUUUGUAUGCGAAAGUAUAUUGAUUAGUUUUGGAGUACUCGUGGUCG
Procedure, shortened: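 A randomised library covering all eight P1ex-region intron nucleotides was built with the intron in the knt kanamycin-resistance gene on pET-22b(+) and held in E. coli BL21(DE3). Cells were grown overnight at 37°C or 30°C on LB agar, with or without 25 μg/mL kanamycin, plus 100 μg/mL carbenicillin, 50 μM IPTG and 0.2% rhamnose, and pooled colonies were amplicon-sequenced on an Illumina HiSeq 2500. DiMSum fitness is the error-weighted combination of wild-type-normalised replicate fold changes, kanamycin versus none.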

Row | Sequence | self-splicing fitness (ln) (30 °C) | self-splicing fitness (ln) (37 °C)
1 | UGAAAGCAAUAUUACGGAAU | -3.12 ± 0.18 | -0.0346 ± 0.15
2 | UGAAAGCAAUAUUACGGACG | -0.186 ± 0.084 | 0.54 ± 0.12
3 | UGAAAGCAAUAUUACGGAGU | -3.82 ± 0.28 | -2.84 ± 0.19
4 | UGAAAGCAAUAUUACGGAUA | -1.56 ± 0.13 | -1.1 ± 0.14
5 | UGAAAGCAAUAUUACGGCCU | -0.0439 ± 0.16 | 0.493 ± 0.18
6 | UGAAAGCAAUAUUACGGCGC | -1.78 ± 0.21 | -0.486 ± 0.23
7 | UGAAAGCAAUAUUACGGCGG | -1.03 ± 0.085 | -0.221 ± 0.14
8 | UGAAAGCAAUAUUACGGCUU | -1.62 ± 0.13 | -1.81 ± 0.2
9 | UGAAAGCAAUAUUACGGGCU | -2.04 ± 0.16 | -1.97 ± 0.27
10 | UGAAAGCAAUAUUACGGGGA | -1.92 ± 0.21 | -0.977 ± 0.19
11 | UGAAAGCAAUAUUACGGUCA | -0.166 ± 0.077 | 0.339 ± 0.1
12 | UGAAAGCAAUAUUACGUCCU | -0.649 ± 0.091 | -0.195 ± 0.081
13 | UGAAAGCAAUAUUACGUCGG | -1.12 ± 0.065 | -0.446 ± 0.082
14 | UGAAAGCAAUAUUACGUGUC | -0.712 ± 0.15 | -2.32 ± 0.21
15 | UGACAGCAAUAUUACGAAAA | -2.4 ± 0.35 | -1.29 ± 0.19
16 | UGACAGCAAUAUUACGAAUG | -0.535 ± 0.086 | -0.604 ± 0.1
17 | UGACAGCAAUAUUACGACAG | -0.934 ± 0.065 | 0.0335 ± 0.084
18 | UGACAGCAAUAUUACGACGU | -1.48 ± 0.099 | -0.473 ± 0.13
19 | UGACAGCAAUAUUACGAGAG | -3.08 ± 0.14 | -1.75 ± 0.11
20 | UGACAGCAAUAUUACGAGUA | -2.37 ± 0.17 | -0.712 ± 0.11
21 | UGACAGCAAUAUUACGAGUC | -3.94 ± 0.23 | -3.33 ± 0.32
22 | UGACAGCAAUAUUACGCAUG | -1.03 ± 0.055 | -0.328 ± 0.061
23 | UGACAGCAAUAUUACGCGAA | -1.32 ± 0.12 | -0.476 ± 0.14
24 | UGACAGCAAUAUUACGGAGA | -3.83 ± 0.29 | -1.98 ± 0.15
25 | UGACAGCAAUAUUACGGGGG | -2.61 ± 0.19 | -2.93 ± 0.2

Row | Sequence | self-splicing fitness (ln) (30 °C) | self-splicing fitness (ln) (37 °C)
26 | UGACAGCAAUAUUACGGUGA | -0.731 ± 0.052 | 0.000318 ± 0.071
27 | UGACAGCAAUAUUACGUAGU | -3 ± 0.17 | -1.22 ± 0.14
28 | UGACAGCAAUAUUACGUCAG | -2.12 ± 0.096 | -1.75 ± 0.11
29 | UGACAGCAAUAUUACGUCCU | -0.124 ± 0.076 | 0.379 ± 0.099
30 | UGACAGCAAUAUUACGUCUA | -0.75 ± 0.09 | -0.464 ± 0.098
31 | UGACAGCAAUAUUACGUGCC | -1.3 ± 0.12 | -1.58 ± 0.15
32 | UGACAGCAAUAUUACGUGUC | -3.44 ± 0.16 | -2.98 ± 0.16
33 | UGACAGCAAUAUUACGUUGC | -3.03 ± 0.2 | -2.89 ± 0.23
34 | UGAGAGCAAUAUUACGAAAU | -2.66 ± 0.22 | -1.75 ± 0.32
35 | UGAGAGCAAUAUUACGACGC | -1.61 ± 0.35 | 
36 | UGAGAGCAAUAUUACGAUCU | -2.49 ± 0.45 | -1.1 ± 0.45
37 | UGAGAGCAAUAUUACGAUGU | -3.27 ± 0.25 | 
38 | UGAGAGCAAUAUUACGCAAC |  | -1.88 ± 0.47
39 | UGAGAGCAAUAUUACGCAAU |  | -3 ± 0.43
40 | UGAGAGCAAUAUUACGCACG | -2.77 ± 0.19 | -0.671 ± 0.2
41 | UGAGAGCAAUAUUACGCAGA | -3.1 ± 0.34 | 
42 | UGAGAGCAAUAUUACGCGAA | -4.25 ± 0.4 | -1.53 ± 0.28
43 | UGAGAGCAAUAUUACGCGUU | -3.23 ± 0.2 | -3.69 ± 0.34
44 | UGAGAGCAAUAUUACGGAUA |  | -2.5 ± 0.26
45 | UGAGAGCAAUAUUACGGCAA | -1.61 ± 0.33 | -1.15 ± 0.18
46 | UGAGAGCAAUAUUACGGGAG | -3.96 ± 0.29 | -1.93 ± 0.21
47 | UGAGAGCAAUAUUACGGGCG | -2.04 ± 0.21 | -0.434 ± 0.19
48 | UGAGAGCAAUAUUACGGUGC | -2.02 ± 0.21 | 
49 | UGAGAGCAAUAUUACGGUGG | -3.4 ± 0.17 | -2.82 ± 0.2
50 | UGAGAGCAAUAUUACGUCCA | -1.04 ± 0.14 | -0.218 ± 0.17

Row | Sequence | self-splicing fitness (ln) (30 °C) | self-splicing fitness (ln) (37 °C)
51 | UGAGAGCAAUAUUACGUUGC | -2.35 ± 0.22 | -1.06 ± 0.33
52 | UGAUAGCAAUAUUACGAACA | -0.502 ± 0.18 | 0.324 ± 0.26
53 | UGAUAGCAAUAUUACGACGA | -0.476 ± 0.16 | 0.0569 ± 0.18
54 | UGAUAGCAAUAUUACGAGCC | -3.7 ± 0.47 | 
55 | UGAUAGCAAUAUUACGAUAA | -2.12 ± 0.16 | -0.841 ± 0.17
56 | UGAUAGCAAUAUUACGAUGU |  | -2.04 ± 0.34
57 | UGAUAGCAAUAUUACGAUUG | -0.719 ± 0.12 | -0.301 ± 0.15
58 | UGAUAGCAAUAUUACGCACA | 0.0791 ± 0.086 | -0.216 ± 0.1
59 | UGAUAGCAAUAUUACGCACU | -0.651 ± 0.14 | -0.218 ± 0.14
60 | UGAUAGCAAUAUUACGCCGG | -1.5 ± 0.22 | 0.564 ± 0.23
61 | UGAUAGCAAUAUUACGCGUG | -1.18 ± 0.072 | -0.0417 ± 0.078
62 | UGAUAGCAAUAUUACGGACC | -1.26 ± 0.26 | 
63 | UGAUAGCAAUAUUACGGCAA | -1.36 ± 0.15 | -0.418 ± 0.15
64 | UGAUAGCAAUAUUACGGCUU | -1.2 ± 0.19 | 0.584 ± 0.17
65 | UGAUAGCAAUAUUACGGGAG | -3.64 ± 0.29 | -2.19 ± 0.21
66 | UGAUAGCAAUAUUACGGUAA |  | -1.62 ± 0.35
67 | UGAUAGCAAUAUUACGGUCC | -0.857 ± 0.1 | 0.318 ± 0.14
68 | UGAUAGCAAUAUUACGGUUA | -0.585 ± 0.067 | -0.467 ± 0.085
69 | UGAUAGCAAUAUUACGUAAC | -3.41 ± 0.17 | -2.76 ± 0.22
70 | UGAUAGCAAUAUUACGUCAA | -2.44 ± 0.18 | -0.767 ± 0.16
71 | UGAUAGCAAUAUUACGUCCA | 0.015 ± 0.09 | 0.154 ± 0.12
72 | UGAUAGCAAUAUUACGUCCU | -0.302 ± 0.07 | 0.376 ± 0.1
73 | UGAUAGCAAUAUUACGUCGG | -1.4 ± 0.12 | -0.72 ± 0.12
74 | UGAUAGCAAUAUUACGUUCG | -0.432 ± 0.076 | 0.4 ± 0.1
75 | UGCAAGCAAUAUUACGAAGU | -3 ± 0.49 | 

Row | Sequence | self-splicing fitness (ln) (30 °C) | self-splicing fitness (ln) (37 °C)
76 | UGCAAGCAAUAUUACGAAUC | -3.56 ± 0.29 | 
77 | UGCAAGCAAUAUUACGAAUU | -2.91 ± 0.14 | -3.01 ± 0.23
78 | UGCAAGCAAUAUUACGACAC | -2.23 ± 0.24 | -1.35 ± 0.21
79 | UGCAAGCAAUAUUACGACUU | -2.34 ± 0.1 | -0.599 ± 0.11
80 | UGCAAGCAAUAUUACGAGGG | -3.56 ± 0.23 | -1.77 ± 0.17
81 | UGCAAGCAAUAUUACGAUAA | -0.8 ± 0.1 | -0.087 ± 0.12
82 | UGCAAGCAAUAUUACGAUUC | -3.54 ± 0.32 | -1.31 ± 0.21
83 | UGCAAGCAAUAUUACGCCCA | -0.543 ± 0.14 | 0.796 ± 0.23
84 | UGCAAGCAAUAUUACGCGAU | -3.34 ± 0.17 | -2.15 ± 0.2
85 | UGCAAGCAAUAUUACGCGCA | -2.17 ± 0.23 | -1.86 ± 0.29
86 | UGCAAGCAAUAUUACGCGUG | -3.54 ± 0.14 | -3.15 ± 0.2
87 | UGCAAGCAAUAUUACGGGAC | -4 ± 0.37 | 
88 | UGCAAGCAAUAUUACGGGCC | -1.31 ± 0.12 | -1.26 ± 0.14
89 | UGCAAGCAAUAUUACGGGUU | -2.62 ± 0.095 | -1.23 ± 0.093
90 | UGCAAGCAAUAUUACGGUGG | -2.3 ± 0.074 | -1.21 ± 0.085
91 | UGCAAGCAAUAUUACGUAAG | -2.75 ± 0.13 | -2.64 ± 0.2
92 | UGCAAGCAAUAUUACGUAAU | -1.85 ± 0.089 | -1.86 ± 0.13
93 | UGCAAGCAAUAUUACGUACC | -2.18 ± 0.16 | -1.02 ± 0.23
94 | UGCAAGCAAUAUUACGUCCC | -1.37 ± 0.28 | -0.65 ± 0.24
95 | UGCAAGCAAUAUUACGUCUC | -1.76 ± 0.12 | -2.67 ± 0.25
96 | UGCAAGCAAUAUUACGUCUU | -4.52 ± 0.31 | -0.686 ± 0.1
97 | UGCAAGCAAUAUUACGUGUA | -1.96 ± 0.073 | -1.35 ± 0.084
98 | UGCAAGCAAUAUUACGUUGA | -2.47 ± 0.1 | -1.32 ± 0.11
99 | UGCAAGCAAUAUUACGUUGC | -3.3 ± 0.31 | -3.31 ± 0.39

Reference: the supplement of paper PMC7877785
